Molecular target: the molecule itself
Assay: X-ray crystal structure of apo FAPα (SEQ ID NO:3), homodimer

B1: FAPα (SEQ ID NO:3), secreted recombinant human fibroblast activation protein alpha, residues 27-760 of SEQ ID NO:1 with part of the gp67 signal sequence at the … (enzyme)
chain: ADPGRPSRVHNSEENTMRALTLKDILNGTFSYKTFFPNWISGQEYLHQSADNNIVLYNIETGQSYTILSNRTMKSVNASNYGLSPDRQFVYLESDYSKLWRYSYTATYYIYDLSNGEFVRGNELPRPIQYLCWSPVGSKLAYVYQNNIYLKQRPGDPPFQITFNGRENKIFNGIPDWVYEEEMLATKYALWWSPNGKFLAYAEFNDTDIPVIAYSYYGDEQYPRTINIPYPKAGAKNPVVRIFIIDTTYPAYVGPQEVPVPAMIASSDYYFSWLTWVTDERVCLQWLKRVQNVSVLSICDFREDWQTWDCPKTQEHIEESRTGWAGGFFVSTPVFSYDAISYYKIFSDKDGYKHIHYIKDTVENAIQITSGKWEAINIFRVTQDSLFYSSNEFEEYPGRRNIYRISIGSYPPSKKCVTCHLRKERCQYYTASFSDYAKYYALVCYGPGIPISTLHDGRTDQEIKILEENKELENALKNIQLPKEEIKKLEVDEITLWYKMILPPQFDRSKKYPLLIQVYGGPCSQSVRSVFAVNWISYLASKEGMVIALVDGRGTAFQGDKLLYAVYRKLGVYEVEDQITAVRKFIEMGFIDEKRIAIWGWSYGGYVSSLALASGTGLFKCGIAVAPVSSWEYYASVYTERFMGLPTKDDNLEHYKNSTVMARAEYFRNVDYLLIHGTADDNVHFQNSAQIAKALVNAQVDFQAMWYSDQNHGLSGLSTNHLYTHMTHFLKQCFSLSDHHHHHH
modifications: three Asn residues (chain A) or five Asn residues (chain B) carry covalently linked sugar molecules; positions not given
notes: Only residues 39-757 are seen in the structure; Expressed in Hi5 insect cells; also called Seprase; apo FAPα
Q: Does B1 bind?
A: binds
